How the values were obtained:
[1] = biological target: mesotrypsin (Homo sapiens) (UniProt P35030); settings: cited from earlier work
[2] = biological target: human kallikrein-6, active (human) (UniProt Q92876); experiment: enzyme inhibition kinetics
[3] = biological target: yeast-displayed APPI_(M17G/I18F/F34V) (human); experiment: flow cytometry on cells

UniProt P35030, sequence (P35030 2-304): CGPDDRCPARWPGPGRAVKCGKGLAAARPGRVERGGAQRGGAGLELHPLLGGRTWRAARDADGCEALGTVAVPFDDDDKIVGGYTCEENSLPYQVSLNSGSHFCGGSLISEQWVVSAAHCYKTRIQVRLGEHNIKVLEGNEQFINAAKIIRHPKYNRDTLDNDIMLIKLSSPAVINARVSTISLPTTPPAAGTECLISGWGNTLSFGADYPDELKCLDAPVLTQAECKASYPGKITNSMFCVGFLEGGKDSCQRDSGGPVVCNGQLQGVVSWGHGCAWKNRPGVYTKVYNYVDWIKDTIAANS

Row | Kd [3] [nM] | Substance | other results
1 | – | APPI Kunitz domain (from UniProt P05067) | Ki [1]: 140 nM
2 | – | APPI_(P13W/M17G/I18F/F34V), soluble form (designed binder) | Ki [2]: 7.6 nM
3 | 42 | catalytically inactive human anionic trypsin S195A, labelled with DyLight 650 (enzyme) | –
4 | 31 | catalytically inactive human cationic trypsin S195A, labelled with DyLight 650 (enzyme) | –
5 | 26 | catalytically inactive human mesotrypsin S195A, labelled with DyLight 488 (enzyme) | –

— publication PMC5929103
